Assay results: patent US7329737 (DYAX, dated 2008)
Numbering of substitutions follows the chain as printed.

Molecular target: T1, hK1 (human tissue kallikrein 1), recombinant (human, UniProt P06870 25-262)
T1 construct: Expressed in P. pastoris from KLK1 cDNA and purified; enzymatically active; also called KLK1; Recombinant (Pichia) Kallikrein
Assay: SPR

B1: M0132-C08 (Fab, V domains shown)
VH: EVQLLESGGGLVQPGGSLRLSCAASGFTFSLYFMTWVRQAPGKGLEWVSSISSSGGSTKYADSVKGRFTISRDNSKNTLYLQMNSLRAEDTAVYYCARGGQWLAFDYWGQGTLVTVSS
VL: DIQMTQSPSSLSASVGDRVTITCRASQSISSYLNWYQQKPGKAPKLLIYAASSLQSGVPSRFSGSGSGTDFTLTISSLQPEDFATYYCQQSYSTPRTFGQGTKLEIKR
B1 gave a Kd of 1.3 nM, a koff of 0.000444 s⁻¹ and a kon of 342000 M⁻¹ s⁻¹.

B2: M0093-C08 (Fab, V domains shown)
VH: EVQLLESGGGLVQPGGSLRLSCAASGFTFSRYPMGWVRQAPGKGLEWVSSIYPSGGSTYYADSVKGRFTISRDNSKNTLYLQMNSLRAEDTAVYYCARVGVWYGMDVWGQGTTVTVSS
VL: DIQMTQSPGTLSLSPGERATLSCRASQSVSSSYLAWYQQKPGQAPRLLIFAASTRATGIPDRFSGSGSATDFTLTISSLEPEDFAVYYCQQRSNWPPELTFSGGTKVEIKR
B2 gave a Kd of 40.7 nM, a koff of 0.00578 s⁻¹ and a kon of 142000 M⁻¹ s⁻¹.

B3: M0110-D06 (Fab, V domains shown)
VH: B2 VH with R31W, P33R, G35A, S50Y, Y52G, Y59S, V93T, V101T, W102F
VL: DIQMTQSPSTLSASLGDRVIITCRASQGIRSWLAWYQQKPGKAPKLLIYAASSLQSGVPSRFSGSGSGTDFTLTISSLQPEDFATYYCQQSYSTPWTFGQGTKVEIKR
Work on B3 yielded a Kd of 232 nM, a koff of 0.0175 s⁻¹ and a kon of 75600 M⁻¹ s⁻¹.

B4: M0124-C04 (Fab, V domains shown)
VH: B2 VH with R31W, P33L, S50V, Y52G, S57L, Y59K, V99F, G100R, V101G, W102Y
VL: not shown
For B4, the Kd was 372 nM, the koff was 0.286 s⁻¹ and the kon was 768000 M⁻¹ s⁻¹.

B5: M0114-G09 (Fab, V domains shown)
VH: B2 VH with R31H, P33A, G35D, S50V, P53S, S57K, Y59T, V93M
VL: AQSALTQPASVSGSPGQSITISCTGTSSDVGSYKLVSWYQQHPGKAPKLMIYEGSKRPSGVSNRFSGSKSGNTASLTISGLQAEDEADYYCCSYAGSSTWVFGGGTKLTVLG
In the case of B5, the Kd is reported as 1.46 nM, the koff is reported as 0.00062 s⁻¹ and the kon is reported as 424000 M⁻¹ s⁻¹.

B6: M0131-B05 (Fab, V domains shown)
VH: B2 VH with R31H, P33V, G35S, S50Y, S57K, Y59H
VL: AQYELTQPASVSGSPGQSITISCTGTSSDIGAYNYVSWYQQHPGKAPKLMIYDVSNRPSGVSNRFSGSKSGNTASLTISGLQAEDEADYYCSSYRSSSLMFGGGTKLTVLG
With B6 the Kd was 0.46 nM, the koff was 0.000117 s⁻¹ and the kon was 255000 M⁻¹ s⁻¹.

B7: M0116-A08 (Fab, V domains shown)
VH: B2 VH with R31Y, P33M, P53T, S57Y, Y59K, V99A, G100S, V101I, W102Y
VL: DIQMTQSPGTLSLSPGERATLSCRASQSVSNSYLAWYQQRPGQAPRLLIYGASSRATGIPDRFSGSGSGTEFTLTISRLEPEDFAVYYCQQFGSSTGYTFGQGTKLELKR
With B7 the Kd was 88.3 nM, the koff was 0.00994 s⁻¹ and the kon was 113000 M⁻¹ s⁻¹.

B8: M0112-D04 (Fab, V domains shown)
VH: B2 VH with R31H, P33V, G35V, S50G, Y52R, P53S, S57V, Y59A, V93M
VL: AQSALTQPLSVSVALGQTARITCGGNNIGSKNVHWYQQKPGQAPVLVIYRDSNRPSGIPERFSGSNSGNTATLTISGAQAGDEADYYCQVWDSSTVFGGGTKLTVLG
B8 showed a Kd of 54.2 nM, a koff of 0.00956 s⁻¹ and a kon of 176000 M⁻¹ s⁻¹.

B9: M0115-F04 (Fab, V domains shown)
VH: EVQLLESGGGLVQPGGSLRLSCAASGFTFSNYLMGWVRQAPGKGLEWVSSIGPSGGYTKYADSVKGRFTISRDNSKNTLYLQMNSLRAEDTAVYYCARGTGTTFFWGQGTLVTVSS
VL: AQSALTQPPSVSVSPGQTVSITCSGDDLGGRHVSWFQQLSGQSPVLVIYQDDKRPSGIPERFSGSNSGNTATLTISGTQSVDEGDYYCLAWHNYKYVFGSGTTVTVLR
B9 gave a Kd of 41.6 nM, a koff of 0.0131 s⁻¹ and a kon of 314000 M⁻¹ s⁻¹.

B10: M0116-E08 (Fab, V domains shown)
VH: EVQLLESGGGLVQPGGSLRLSCAASGFTFSRYPMIWVRQAPGKGLEWVSVIYPSGGMTKYADSVKGRFTISRDNSKNTLYLQMNSLRAEDTAVYYCARVGSYGSLGYWGQGTLVTVSS
VL: DIQMTQSPSSLSASVGDRVTITCLASQSISSYLNWYQQKPGKAPKLLIYDASSLESGVPSRFSGSGSGTDFTLTISSLQPEDFAIYYCQQFNGYPPITFGQGTRLEIKR
For B10, the Kd was 72.7 nM, the koff was 0.0164 s⁻¹ and the kon was 225000 M⁻¹ s⁻¹.

B11: M0102-D07 (Fab, V domains shown)
VH: EVQLLESGGGLVQPGGSLRLSCAASGFTFSRYWMWWVRQAPGKGLEWVSSIGPSGGATRYADSVKGRFTISRDNSKNTLYLQMNSLRAEDTAVYYCTTGSAGNWGQGTLVTVSS
VL: DIQMTQSPGTLSLSPGERATLSCGASQSVSTTYIAWYQHKPGQPPRLLIYGASNRATGIPDRFRGSGSGTDFTLTISRLEPEDFAVYYCQQYGSSPYTFGQGTKLEIKR
With B11 the Kd was 78.6 nM, the koff was 0.0122 s⁻¹ and the kon was 155000 M⁻¹ s⁻¹.

B12: M0113-D05 (Fab, V domains shown)
VH: EVQLLESGGGLVQPGGSLRLSCAASGFTFSHYIMMWVRQAPGKGLEWVSSIYPSGGSTIYADSVKGRFTISRDNSKNTLYLQMNSLRAEDTAVYYCASATEGYYYGMDVWGQGTTVTVSS
VL: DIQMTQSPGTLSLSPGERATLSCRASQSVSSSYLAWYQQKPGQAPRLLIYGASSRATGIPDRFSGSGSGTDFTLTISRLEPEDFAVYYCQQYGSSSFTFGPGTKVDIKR
With B12 the Kd was 152 nM, the koff was 0.00214 s⁻¹ and the kon was 14100 M⁻¹ s⁻¹.

B13: M0131-F12 (Fab, V domains shown)
VH: EVQLLESGGGLVQPGGSLRLSCAASGFTFSRYAMGWVRQAPGKGLEWVSYIGPSGGNTTYADSVKGRFTISRDNSKNTLYLQMNSLRAEDTAVYYCARDVGGSGSYYMLSYYYYGMDVWGQGTMVTVSS
VL: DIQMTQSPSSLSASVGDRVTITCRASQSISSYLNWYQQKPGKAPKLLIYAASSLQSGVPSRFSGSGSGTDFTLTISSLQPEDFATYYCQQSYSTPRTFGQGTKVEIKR
Work on B13 yielded a Kd of 37 nM, a koff of 0.00472 s⁻¹ and a kon of 128000 M⁻¹ s⁻¹.

B14: M0108-E10 (Fab, V domains shown)
VH: EVQLLESGGGLVQPGGSLRLSCAASGFTFSRYRMVWVRQAPGKGLEWVSSIYPSGGYTKYADSVKGRFTISRDNSKNTLYLQMNSLRAEDTAVYYCARVITYNNFDSWGQGTLVTVSS
VL: DIQMTQSPGTLSLSPGERATLSCRASQTVSSTYLAWYQQKPGQAPRLLIYGASSRATGIPDRFSGGGSGTDFTLTISRLEPEDFAVYYCQQYGSSPPRYTFGQGTKLEIKR
B14 was tested, and the Kd was 58.4 nM, the koff was 0.0134 s⁻¹ and the kon was 230000 M⁻¹ s⁻¹.

B15: M0103-E09 (Fab, V domains shown)
VH: EVQLLESGGGLVQPGGSLRLSCAASGFTFSHYSMLWVRQAPGKGLEWVSSIRPSGGFTKYADSVKGRFTISRDNSKNTLYLQMNSLRAEDTAVYYCARRGVWDAFDIWGQGTMVTVSS
VL: AQYELTQPASVSGSPGQSITISCTGTNTDVGGYNFVSWYQQYPGKAPKLIIFDVTNRPSGVSNRFSGSKSGNTASLTISGLQAEDEADYYCCSYTNTNTLVFAGGTKVTVLG
B15 gave a Kd of 36.4 nM, a koff of 0.00884 s⁻¹ and a kon of 243000 M⁻¹ s⁻¹.

B16: M0131-D01 (Fab, V domains shown)
VH: B15 VH with S33N, L35N, S50V, R52Y, F57Q, K59H, V101I, D103H, A104S
VL: DIQMTQSPGTLSLSPGERASLSCRASQSVSSNYLSWYQQKPGQAPRLLIYGTSNRASGIPVRFSGSGSGTDFTLTISRLEPEDFAVYYCQQYGGAPLFIFGPGTRVDIKR
B16 showed a Kd of 1.04 nM, a koff of 0.000325 s⁻¹ and a kon of 311000 M⁻¹ s⁻¹.

B17: M0103-H07 (Fab, V domains shown)
VH: B15 VH with S33G, L35Y, R52Y, F57W, K59N, V101S, D103G
VL: DIQMTQSPSSLSASVGDRVAITCRASQSIDTYLNWYQQKPGKAPKLLIYAASKLEDGVPSRFSGSGTGTDFTLTIRSLQPEDFATYYCQPYNTYPITFGQGTRLEIKR
B17 showed a Kd of 85.7 nM, a koff of 0.0086 s⁻¹ and a kon of 100000 M⁻¹ s⁻¹.

B18: M0104-D12 (Fab, V domains shown)
VH: B15 VH with S33A, L35F, R52W, F57K, K59M, V93T, R99G, V101S, W102Y, D103L
VL: DIQMTQSPSSLSASVGDRVTITCRASLSVSGYLNWYQHKPGRAPNLLIYATSSLQSGVPSRFSGSGSGTDFTLTVSSLQPEDLATYYCQQSYSSPYTFGQGTKVEIKG
B18 was tested, and the Kd was 61.3 nM, the koff was 0.0192 s⁻¹ and the kon was 314000 M⁻¹ s⁻¹.

B19: M0113-G11 (Fab, V domains shown)
VH: EVQLLESGGGLVQPGGSLRLSCAASGFTFSHYMMQWVRQAPGKGLEWVSGIGPSGGWTKYADSVKGRFTISRDNSKNTLYLQMNSLRAEDTALYYCARLNYGDYVWGQGTLVTVSS
VL: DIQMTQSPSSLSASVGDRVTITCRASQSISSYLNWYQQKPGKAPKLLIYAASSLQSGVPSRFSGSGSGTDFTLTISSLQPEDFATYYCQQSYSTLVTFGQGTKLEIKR
With B19 the Kd was 42.5 nM, the koff was 0.0121 s⁻¹ and the kon was 286000 M⁻¹ s⁻¹.

B20: M0124-A01 (Fab, V domains shown)
VH: EVQLLESGGGLVQPGGSLRLSCAASGFTFSNYPMYWVRQAPGKGLEWVSRIGPSGGHTDYADSVKGRFTISRDNSKNTLYLQMNSLRAEDTAVYYCARAGVWSGLDYWGQGTLVTVSS
VL: DIQMTQSPSSLSASVGDRVTITCRASQSITGYLNWYQQKPGKAPKLLIYAASSLQSGVPSRFSGSGSGTDFTLSISSLQPEDFATYYCQQSYSTPYTFGQGTKLEIKR
In the case of B20, the Kd is reported as 33.9 nM, the koff is reported as 0.0114 s⁻¹ and the kon is reported as 336000 M⁻¹ s⁻¹.

B21: M0102-C02 (Fab, V domains shown)
VH: EVQLLESGGGLVQPGGSLRLSCAASGFTFSHYLMHWVRQAPGKGLEWVSSIYPSGGKTQYADSVKGRFTISRDNSKNTLYLQMNSLRAEDTAVYYCARVFGYYDFWSGYPGAFDYWGQGTLVTVSS
VL: B3 VL with T10S, L15V, I20T, R30S, W32S, A43V, S53T
Binder B21 has a Kd of 43.5 nM, a koff of 0.00628 s⁻¹ and a kon of 144000 M⁻¹ s⁻¹.

B22: M0106-D06 (Fab, V domains shown)
VH: B15 VH with H31Y, S33L, L35G, R52G, F57T, V101L, W102G, D103A, I107Y, M113L
VL: B20 VL with L11V, S28G, T30S, G31S, Y32W, N34A, S74T, S91A, Y92N, T94F
B22 was tested, and the Kd was 123 nM, the koff was 0.019 s⁻¹ and the kon was 154000 M⁻¹ s⁻¹.
